According to patent US12428627B2, “Mutant p-hydroxyphenylpyruvate dioxygenase, and coding nucleic acid and use thereof” (Qingdao Kingagroot Chemical Compound Co., Ltd., priority 2018, dated 2025):

System: OsHPPD
Assay: HPPD enzyme activity assay: Km, Kcat and Kcat/Km of OsHPPDs
Assay type: biochemical, Oryza sativa
Details: substrate 4-HPP
Method: The rice OsHPPD protein and homogentisate 1,2-dioxygenase (HGD) were obtained by heterologously expressed in E. coli wherein the gene was inserted into the pET 15b expression vector and expressed in the BL21 (DE3) expression strain, and purified by the Ni-NTA resin. • (1) The HPPD open reading frame (ORF) of the positive clone was cloned into the pET-15b vector to form a 6His-HPPD expression vector, and transformed into the BL21 (DE3) cell. The expression strain was inoculated in 10 mL of 2×YT culture medium, and cultivated overnight on a shaker at 37° C. and 200 rpm. The 10 mL of the culture was inoculated in 1 L of 2×YT culture medium and cultivated until the OD600 reached 0.6-0.8, cooled to a temperature of 16° C., and subjected to induced-expression with 0.2 mM IPTG (isopropyl thiogalactoside) overnight. The strains were collected by centrifugation at 2800×g. • (2) The collected strains were re-suspended with the buffer A (50 mM Tris pH 8.0, 500 mM NaCl, 20 mM imidazole), to which PMSF (phenylmethanesulfonyl fluoride) at the final concentration of 1 mM and 250 μL of a protease inhibitor cocktail (i.e., a mixture of multiple protease inhibitors), and mixed. The cells were broken by ultrasound in ice-bath (40% total power, work for 3 seconds/6 seconds interval, 2×30 minutes (Ningbo Scientz Biotechnology Co., Ltd., Ningbo, China)), and centrifuged at 12000 rpm at 4° C. for 30 minutes; and the supernatant was filtered with a 0.22 μm filter membrane. • (3) Purification with the Ni-NTA column: the supernatant was in contact with the Ni-NTA resin, then rinsed with a buffer A containing 50 mM imidazole to remove the impurities, and finally, eluted with an elution buffer containing 400 mM imidazole. • (4) The approximate purity of the protein of interest was analyzed by SDS-PAGE. The eluates containing of the protein of interest were combined and concentrated by an ultrafiltration device (10 kDa molecular weight cut-off, Amicon Ultra). The solution was replaced with a solution containing 20 mM Tris-HCl and having a pH of 7.5 for at least 3 times to desalt. The total protein concentration was determined by the BCA method.
• 1. The activity of a HPPD enzyme was determined by detecting the conversion of 4-hydroxyphenylpyruvate (4-HPP) to homogentisic acid (HGA) catalyzed by the HPPD enzyme and the conversion of HGA to maleylacetoacetate (MAA) catalyzed by homogentisate dioxygenase. […] 6 μl of 4-hydroxyphenylpyruvate (4-HPP) having a concentration that was as 50 times as the final concentration of the substrate were added to an ELSA plate, and then 294 μL of hydroxyethylpiperazine ethanesulfonic acid (HEPES) with a final concentration of 25 mM and pH of 7, 2 mM of Vitamin C, 10 mM FeSO4, 50 nM homogentisate dioxygenase and 5 to 240 nM HPPD enzyme were added thereto at one time. The final concentration of reaction substrate 4-HPP usually ranged from 1 to 100 μM. • 3. The absorbance changes of the reaction wells at 318 nm were continuously monitored by a UV ELISA detector (ReadMax 1900 photoabsorption type full-wavelength microplate reader) (Shanghai). • 4. Determination of Km, Kcat and Kcat/Km of OsHPPDs
Vmax is the maximum catalytic reaction rate achievable by enzymatic catalysis. The Michaelis constant Km is the concentration of a substrate required when the enzyme catalyzed the reaction to achieve half of the maximum rate (Vmax). The Km value is a constant and independent of the enzyme concentration, and altered as substrate type, reaction temperature, pH, and ionic strength changed. […] is a catalytic constant of an enzyme and referred to the number of substrate molecules that could be catalyzed by an enzyme molecule or enzyme active center per second. KCat/Km represents the catalytic efficiency of enzyme. It could be seen from the data in the table that the catalytic efficiency of most HPPD mutants was enhanced.

B1: H141R/G342D/D370N: three-site mutant rice HPPD (OsHPPD3M) (protein, listed as Oryza sativa)
chain: MPPTPTPTATTGAVSAAAAAGENAGFRLVGHRRFVRANPRSDRFQALAFHHVELWCADAASAAGRFAFALGAPLAARSDLSTGNSAHASLLLRSASVAFLFTAPYGGDHGVGADAATTASIPSFSPGAARRFAADHGLAVRAVALRVADAADAFRASVAAGARPAFQPADLGGGFGLAEVELYGDVVLRFVSHPDGADAPFLPGFEGVSNPGAVDYGLRRFDHVVGNVPELAPVAAYISGFTGFHEFAEFTAEDVGTAESGLNSVVLANNAETVLLPLNEPVHGTKRRSQIQTYLDHHGGPGVQHIALASDDVLGTLREMRARSAMGGFEFLAPPPPNYYDDVRRRAGDVLSEEQINECQELGVLVDRDNQGVLLQIFTKPVGDRPTFFLEMIQRIGCMEKDESGQEYQKGGCGGFGKGNFSELFKSIEEYEKSLEAKQAPTVQGS
modifications: The amino acid sequence of Wild-Type rice HPPD protein (OsHPPD _WT)
  Km: 10.9 µM
